# In the RNAGym collection of RNA variant scans (doi:10.7554/elife.90254):
# B1: LINE1-full (parent)
# chain: UACGUAGGUGGUUUUCCCCUGAUAGUGCUAAGGGGGCCUGGAAGUUUGGACUGGGCAGAGCUCAACACAGCGUGGCAAAGUGGCUGUGGCUAGACUGCCUCUCUGGAUUCCUCGUCACUCAGCAGGGCAUCUCUGAGAGAAAUGCC
# Variants of: B1
# Experiment: self-cleavage, relative activity (ratio to wild type); higher = more cleavage; in vitro, sequencing; the parent is a self-cleaving ribozyme
row,Variant,self-cleavage
1,C28A A57G,1.53
2,C28U C38U,1.06
3,A30G U102G,1.84
4,G27C U112C,1.53
5,A30G U45C,1.38
6,U29A U46C,1.21
7,A30C A138G,1.84
8,C28U,1.08
9,C28A,1.07
10,C28G,0.98
11,A30U C113U,0.88
12,A30C U52C,0.33
13,G27C U100C,1.13
14,G27A A121G,1.46
15,U29A A67G,0.67
16,U29A U100A,0.91
17,G27A G53U,1.14
18,G27A G53A,0.94
19,U29A U85C,0.29
20,U29A U85A,0.12
21,A30G G126C,1.72
22,U29C A142U,0.86
23,U29C A142G,1.38
24,U29C A142C,1.06

row,Variant,self-cleavage
1,U29C A92U,0.81
2,U29G U115C,0.63
3,G27A U91C,0.35
4,U29C G105A,1.13
5,U29C C113U,1.44
6,U29A U115C,1.98
7,A30U C95A,0.03
8,G27A G34A,0.64
9,G27C A67C,0.1
10,G27A A140G,1.38
11,C28A A129G,1.5
12,C28U A94G,0.3
13,C28G U115C,0.75
14,C28U A117G,1.58
15,U29G A64G,0.6
16,A30C G122A,1.02
17,U29A A59G,0.16
18,G27A U29C,0.79
19,A30U A121C,0.55
20,A30U A121G,1.08
21,U26G U143A,0.68
22,C28A G36A,1.9
23,U29G U87C,0.19
24,U29C U85G,0.28

row,Variant,self-cleavage
1,U29C C146U,1.02
2,A30G G48A,0.5
3,A30G G41U,1.66
4,A30G G75A,1.05
5,C28G U100A,0.81
6,C28A U96C,0.17
7,G27A A79U,1.36
8,G27A A79G,1.07
9,U26G A141G,0.97
10,A30C A67C,0.21
11,A30U A59G,0.22
12,C28A A67G,0.55
13,A30U A142G,1.28
14,A30G U52C,1.53
15,A30G U52A,1.21
16,G27A G36C,1.24
17,U26G G105A,1.06
18,U29A U73A,1.55
19,A30G U73C,2.09
20,A30G A65U,0.39
21,A30U A129U,1.38
22,A30U A129G,0.58
23,C28A U81C,0.89
24,U29C C111U,1.13

row,Variant,self-cleavage
1,U29C C68U,0.4
2,A30C U130A,0.75
3,C28A U39A,1.54
4,U29C G74A,1.11
5,G27A U96C,0.1
6,G27A A138C,1.18
7,A30G U81C,1.33
8,A30G U81A,1.7
9,A30G C99U,1.03
10,U29C U45A,0
11,U29A A136G,1.38
12,U29A A136U,1.38
13,U29C A50G,0.82
14,A30C U81C,0.92
15,U26G G139A,1.47
16,C28A A141G,0.61
17,U29A C145U,0.61
18,U29A U39G,1.58
19,U29A U81C,0.92
20,G27A U102A,1.12
21,U29C U143C,1.75
22,C28U A77G,1.38
23,C28U A77C,1.07
24,U26G U73C,0.96

row,Variant,self-cleavage
1,U26G U73A,1.61
2,C28A A42G,0.82
3,G27A A30U,1.58
4,U29A U62A,0
5,C28G C98A,0.12
6,C28G A77G,0.89
7,A30G C118U,1.93
8,U29C G125A,0.94
9,C28U U46C,1.21
10,C28A G32A,0.7
11,U29C A117U,1.51
12,G27A A94G,0.23
13,G27A A94U,0.18
14,C28A A77U,1.42
15,C28A U85C,0.17
16,A30G A67U,0.1
17,A30G A67G,0.51
18,G27A A78G,0.74
19,A30U G72A,1.24
20,G27U U132A,1.23
21,C28U A92U,0.43
22,U26G U39A,1.12
23,U26G U39C,1
24,A30C A136U,1.19

row,Variant,self-cleavage
1,A30U A79G,0.91
2,A30U C56U,0.04
3,C28U A141G,1.53
4,U29C G82A,1.44
5,U29C A65U,0.42
6,A30G U46A,0.84
7,A30G U46C,1.06
8,A30G A57C,0
9,A30G A57U,0.27
10,U29A A140G,1.3
11,A30U A69G,0.4
12,U29C U46C,1.36
13,A30G C66U,0.05
14,U29C U87A,0.16
15,U29C U87C,0.41
16,C28G C128U,1.8
17,A30G G36C,1.25
18,U29A U104A,1.26
19,U29C C56U,0.23
20,A30U C61G,0.08
21,A30C G36A,1.09
22,U29G A107G,2.23
23,U26G U130C,0.86
24,C28U U81C,1.39

row,Variant,self-cleavage
1,C28U U81A,1.44
2,A30U G33A,1.23
3,G27A U115C,1.54
4,C28U U47G,0.7
5,C28U C101U,1.06
6,A30G A136U,0.55
7,A30G U115C,1.12
8,A30G C56U,0.84
9,U29C U62A,0.03
10,U29A A121C,0.84
11,U26G A107G,0
12,C28A U108C,1.82
13,G27U C61U,0.06
14,A30U A64U,0.51
15,C28U A136G,0
16,G27U U73C,1.51
17,A30G U132C,1.05
18,G27U G41U,1.26
19,U29C U108G,1.2
20,U29A C133U,0.85
21,C28U A142G,0.79
22,A30G C71U,0.85
23,A30G A42U,1.06
24,U29C C71A,0.32

row,Variant,self-cleavage
1,U29A A138G,1.11
2,A30C C131G,2.01
3,U29C A31U,1
4,U26G U108A,1.03
5,U26G U108C,1.41
6,A30G G139A,1.31
7,U29C A141G,1.27
8,U26G U62A,0.03
9,U26G U62C,0.19
10,A30U G49U,0.85
11,A30G A141U,1.06
12,A30G A141C,0.82
13,U26G A121C,1.31
14,C28A A64G,0.28
15,A30G A31G,1.15
16,A30G U39C,1.13
17,A30G U39A,0.98
18,C28U A50G,1.09
19,U29A G126A,0.75
20,C28G A65U,0
21,C28U C123U,1.03
22,A30U A65U,0.19
23,A30U A94C,0
24,A30U A94U,0.34

row,Variant,self-cleavage
1,U29C C128U,1.3
2,A30G G135A,1.4
3,A30G U134A,1.05
4,A30G U134C,1.13
5,G27U U52C,0.36
6,U29C G122U,1.35
7,U29C G122A,1.68
8,A30G G35A,1.11
9,U29C A79G,1.16
10,U29C A79U,2.16
11,A30G A43G,0.78
12,U29C A94U,0.56
13,U29C U39C,1.74
14,U29C U39G,0.51
15,U29C C116A,1.16
16,A30G U130C,1.36
17,A30G A117U,1.17
18,U29C A43G,1.29
19,U29C A43U,1.18
20,A30C A65G,0.08
21,A30G A94G,0.34
22,A30G A94U,0.64
23,U29A A78U,1.48
24,A30U G54U,0.84

row,Variant,self-cleavage
1,U29A G35U,1.16
2,C28U C63A,0.02
3,U29C U109A,1.28
4,U29A U96C,0.13
5,U29A A43G,1.77
6,U26G U81C,0.58
7,U29C G32A,1.08
8,C28U A107G,0.88
9,A30G A124U,1.44
10,U29A A65U,0.23
11,A30G A121G,0.52
12,A30G A121U,0.84
13,U29C C101G,0.89
14,U29A A57G,1.01
15,A30G G106U,0.83
16,A30G U47A,1.57
17,A30G U47C,1.09
18,A30U A140U,0.67
19,A30U A140G,1.76
20,U29C A121G,1.43
21,A30G G114A,0.92
22,U29C A136G,0.92
23,A30U A124G,0.84
24,C28U A78G,1

row,Variant,self-cleavage
1,A30G A77G,2.12
2,U29G C99A,0.42
3,C28G U39C,0.82
4,U29A U109C,1.25
5,G27U U47C,0.88
6,U29G C71G,0.23
7,U29C U91C,1.38
8,A30U C37G,0.81
9,U29C C61A,0.03
10,U29C A78U,2.53
11,U29C U96C,0.24
12,U29C U96A,0.15
13,U29A A107G,1.56
14,G27A U62C,0.08
15,U29A U108C,2.61
16,U29A A129G,1.11
17,A30G A142U,0.99
18,A30G A142G,1.07
19,A30G U100A,1.59
20,A30G U100C,1.07
21,A30U G40U,0.97
22,A30G G89C,0.07
23,A30G C90U,0.07
24,U29A A64U,0.25

row,Variant,self-cleavage
1,U29A A92G,0
2,U29C G144A,1.22
3,A30G,1.09
4,A30U,1.1
5,A30C,1.27
6,U29C A69G,0.53
7,G27U G82A,1.51
8,U29A A50U,0.89
9,U29A A50G,0.51
10,C28U U52C,1.58
11,U29G A78G,0.87
12,A30G A140C,0.93
13,C28U A59G,0.09
14,U29A A30G,0.86
15,U29C U130A,1.26
16,U29C U130C,1.52
17,U29C U100A,1.42
18,A30G G53A,0.94
19,A30G C84G,0.17
20,A30G C84A,0.22
21,A30G A78G,1.34
22,A30G A78U,1.44
23,C28A U47C,0.63
24,C28A A124G,0.56

row,Variant,self-cleavage
1,U29A G74A,0.59
2,C28U A138U,0.9
3,A30G G125U,1.47
4,A30G A129U,0.89
5,U29C A64U,0.54
6,U29C A30G,0.89
7,U29C A30U,1.23
8,A30G G49U,0.89
9,U29C A77G,1.92
10,G27C G54U,0.17
11,G27A A42G,0.99
12,A30G U87C,0.11
13,U29C C98U,0.42
14,C28U G54A,0.65
15,A30G A69G,0.55
16,A30G A69C,0.26
17,U29A G41A,1.7
18,A30U G34A,1.13
19,U29A U134A,1.19
20,A30G C116U,1.27
21,U29A U47C,0
22,G27C U52A,0.91
23,A30C G58U,0.09
24,A30C A50G,1.21

row,Variant,self-cleavage
1,U29A U87C,0.22
2,U29A U87G,0.12
3,A30U C38A,0.35
4,A30U A77U,0.98
5,U29C C131U,0.93
6,U29A A42G,1.65
7,C28U U115G,1.3
8,U29C G126A,0.77
9,A30G A59U,0.78
10,U29C A57G,0.98
11,U29C A57U,0.33
12,A30U A67U,0.1
13,G27A A57U,0.04
14,C28A A92G,0.12
15,U29A A124G,0.91
16,A30G U85C,0.45
17,U26G G122A,1.81
18,U29C G34A,0.73
19,U29C U73A,1.59
20,G27A U81C,0.8
21,U29C G41U,0.65
22,U29C G41A,1.32
